Substrate: CC(=O)Oc1cccc2ccccc12
Assay: purified protein
Type: biochemical, Aspergillus oryzae
Settings: 50 mM sodium phosphate pH 8.0, 30 °C (general assay conditions)

B1: AoAxeB (Aspergillus oryzae RIB40) (protein)
chain: AGSAGCGQPLPPSQNPGGSSYGVNFTLSAGTQRFYRIHIPSNYNVNTPTPLIFSFHGRGKTAESQEKLSQFSNEDWNPDAIAVYPQGLNKEWQGDPHSKDVDDIAFTMEMLDYFQEKFCIDSTRVYAAGKSNGGGFTNLLACDPTASTRIAAFAPVSGAYYQDVSEEACHPTTVPIKCSPGRPSIPILEFHGTADKTIPYGGGGRRGECLPSIPHFVREWSKRLGYGLHNTTKELYDGNVQEYQYGNGDNRGIVTHYRIGGLGHDWPSVRPNSDNPNGTYLDATPIIVKFFKQWVLPGSSEDNQSEAR
In the case of B1, the Km is reported as 0.24 ± 0.12 mM and the kcat is reported as 0.17 ± 0.03 s⁻¹.
